# Source: IntAct's records for PubMed 31515488
# B1: Geminin (Homo sapiens), O75496 (parent)
# chain: MNPSMKQKQEEIKENIKNSSVPRRTLKMIQPSASGSLVGRENELSAGLSKRKHRNDHLTSTTSSPGVIVPESSENKNLGGVTQESFDLMIKENPSSQYWKEVAEKRRKALYEALKENEKLHKEIEQKDNEIARLKKENKELAEVAEHVQYMAELIERLNGEPLDNFESLDNQEFDSEEETVEDSLVEDSEIGTCAEGTVSSSTDAKPCI
# B2: Keratin, type II cytoskeletal 2 epidermal (Homo sapiens), P35908 (parent)
# chain: MSCQISCKSRGRGGGGGGFRGFSSGSAVVSGGSRRSTSSFSCLSRHGGGGGGFGGGGFGSRSLVGLGGTKSISISVAGGGGGFGAAGGFGGRGGGFGGGSSFGGGSGFSGGGFGGGGFGGGRFGGFGGPGGVGGLGGPGGFGPGGYPGGIHEVSVNQSLLQPLNVKVDPEIQNVKAQEREQIKTLNNKFASFIDKVRFLEQQNQVLQTKWELLQQMNVGTRPINLEPIFQGYIDSLKRYLDGLTAERTSQNSELNNMQDLVEDYKKKYEDEINKRTAAENDFVTLKKDVDNAYMIKVELQSKVDLLNQEIEFLKVLYDAEISQIHQSVTDTNVILSMDNSRNLDLDSIIAEVKAQYEEIAQRSKEEAEALYHSKYEELQVTVGRHGDSLKEIKIEISELNRVIQRLQGEIAHVKKQCKNVQDAIADAEQRGEHALKDARNKLNDLEEALQQAKEDLARLLRDYQELMNVKLALDVEIATYRKLLEGEECRMSGDLSSNVTVSVTSSTISSNVASKAAFGGSGGRGSSSGGGYSSGSSSYGSGGRQSGSRGGSGGGGSISGGGYGSGGGSGGRYGSGGGSKGGSISGGGYGSGGGKHSSGGGSRGGSSSGGGYGSGGGGSSSVKGSSGEAFGSSVTFSFR
# partner: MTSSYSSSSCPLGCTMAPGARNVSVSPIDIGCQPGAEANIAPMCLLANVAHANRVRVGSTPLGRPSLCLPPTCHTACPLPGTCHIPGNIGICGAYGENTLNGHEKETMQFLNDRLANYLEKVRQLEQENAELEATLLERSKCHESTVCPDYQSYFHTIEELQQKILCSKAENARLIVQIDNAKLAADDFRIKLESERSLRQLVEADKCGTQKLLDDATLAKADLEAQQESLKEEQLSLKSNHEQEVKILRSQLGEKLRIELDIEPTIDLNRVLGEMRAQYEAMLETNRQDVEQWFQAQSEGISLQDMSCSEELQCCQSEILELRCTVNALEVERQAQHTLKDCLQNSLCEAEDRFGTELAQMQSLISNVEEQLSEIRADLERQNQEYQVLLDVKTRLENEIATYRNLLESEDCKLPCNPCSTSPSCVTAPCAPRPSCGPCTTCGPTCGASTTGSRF
# B3: Zinc finger protein 165 (Homo sapiens), P49910 (parent)
# chain: MATEPKKAAAQNSPEDEGLLIVKIEEEEFIHGQDTCLQRSELLKQELCRQLFRQFCYQDSPGPREALSRLRELCCQWLKPEIHTKEQILELLVLEQFLTILPGDLQAWVHEHYPESGEEAVTILEDLERGTDEAVLQVQAHEHGQEIFQKKVSPPGPALNVKLQPVETKAHFDSSEPQLLWDCDNESENSRSMPKLEIFEKIESQRIISGRISGYISEASGESQDICKSAGRVKRQWEKESGESQRLSSAQDEGFGKILTHKNTVRGEIISHDGCERRLNLNSNEFTHQKSCKHGTCDQSFKWNSDFINHQIIYAGEKNHQYGKSFKSPKLAKHAAVFSGDKTHQCNECGKAFRHSSKLARHQRIHTGERCYECNECGKSFAESSDLTRHRRIHTGERPFGCKECGRAFNLNSHLIRHQRIHTREKPYECSECGKTFRVSSHLIRHFRIHTGEKPYECSECGRAFSQSSNLSQHQRIHMRENLLM
# partner: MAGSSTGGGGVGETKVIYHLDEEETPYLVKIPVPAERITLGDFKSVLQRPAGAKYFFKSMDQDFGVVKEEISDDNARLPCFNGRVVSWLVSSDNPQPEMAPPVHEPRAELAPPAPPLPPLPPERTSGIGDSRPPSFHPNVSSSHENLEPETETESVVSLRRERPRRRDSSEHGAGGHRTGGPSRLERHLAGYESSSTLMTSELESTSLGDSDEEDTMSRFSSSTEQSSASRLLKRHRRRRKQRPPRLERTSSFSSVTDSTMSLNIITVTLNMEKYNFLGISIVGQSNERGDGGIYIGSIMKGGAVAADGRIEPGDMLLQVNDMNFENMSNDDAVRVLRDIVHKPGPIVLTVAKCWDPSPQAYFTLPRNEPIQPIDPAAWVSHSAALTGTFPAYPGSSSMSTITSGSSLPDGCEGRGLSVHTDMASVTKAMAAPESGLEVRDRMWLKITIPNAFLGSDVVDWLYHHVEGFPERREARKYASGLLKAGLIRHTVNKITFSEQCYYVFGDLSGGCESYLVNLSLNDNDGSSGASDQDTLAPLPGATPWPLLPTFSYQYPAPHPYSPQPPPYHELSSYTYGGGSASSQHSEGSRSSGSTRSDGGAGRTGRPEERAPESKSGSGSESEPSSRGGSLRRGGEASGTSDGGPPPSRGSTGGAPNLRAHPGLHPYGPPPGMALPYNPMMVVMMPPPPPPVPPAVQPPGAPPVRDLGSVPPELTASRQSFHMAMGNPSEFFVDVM
# B4: PHD finger protein 1 (Homo sapiens), O43189 (parent)
# chain: MAQPPRLSRSGASSLWDPASPAPTSGPRPRLWEGQDVLARWTDGLLYLGTIKKVDSAREVCLVQFEDDSQFLVLWKDISPAALPGEELLCCVCRSETVVPGNRLVSCEKCRHAYHQDCHVPRAPAPGEGEGTSWVCRQCVFAIATKRGGALKKGPYARAMLGMKLSLPYGLKGLDWDAGHLSNRQQSYCYCGGPGEWNLKMLQCRSCLQWFHEACTQCLSKPLLYGDRFYEFECCVCRGGPEKVRRLQLRWVDVAHLVLYHLSVCCKKKYFDFDREILPFTSENWDSLLLGELSDTPKGERSSRLLSALNSHKDRFISGREIKKRKCLFGLHARMPPPVEPPTGDGALTSFPSGQGPGGGVSRPLGKRRRPEPEPLRRRQKGKVEELGPPSAVRNQPEPQEQRERAHLQRALQASVSPPSPSPNQSYQGSSGYNFRPTDARCLPSSPIRMFASFHPSASTAGTSGDSGPPDRSPLELHIGFPTDIPKSAPHSMTASSSSVSSPSPGLPRRSAPPSPLCRSLSPGTGGGVRGGVGYLSRGDPVRVLARRVRPDGSVQYLVEWGGGGIF
# partner: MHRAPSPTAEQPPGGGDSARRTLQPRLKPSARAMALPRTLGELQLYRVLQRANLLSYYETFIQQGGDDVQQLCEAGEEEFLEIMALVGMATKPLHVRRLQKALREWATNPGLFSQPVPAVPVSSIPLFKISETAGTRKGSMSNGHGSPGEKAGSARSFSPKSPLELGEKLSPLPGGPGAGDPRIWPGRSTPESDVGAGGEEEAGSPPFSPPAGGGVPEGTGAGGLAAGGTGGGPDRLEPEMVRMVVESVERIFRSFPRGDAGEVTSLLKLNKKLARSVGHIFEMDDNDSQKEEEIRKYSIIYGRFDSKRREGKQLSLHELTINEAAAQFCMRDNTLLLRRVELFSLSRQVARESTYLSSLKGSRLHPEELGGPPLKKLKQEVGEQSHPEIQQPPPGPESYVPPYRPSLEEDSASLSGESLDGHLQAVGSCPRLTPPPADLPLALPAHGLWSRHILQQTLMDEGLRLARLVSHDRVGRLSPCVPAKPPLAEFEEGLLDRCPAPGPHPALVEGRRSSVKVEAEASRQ
# B5: Protein BEX5 (Homo sapiens), Q5H9J7 (parent)
# chain: MENVPKENKVVEKAPVQNEAPALGGGEYQEPGGNVKGVWAPPAPGFGEDVPNRLVDNIDMIDGDGDDMERFMEEMRELRRKIRELQLRYSLRILIGDPPHHDHHDEFCLMP
# partner: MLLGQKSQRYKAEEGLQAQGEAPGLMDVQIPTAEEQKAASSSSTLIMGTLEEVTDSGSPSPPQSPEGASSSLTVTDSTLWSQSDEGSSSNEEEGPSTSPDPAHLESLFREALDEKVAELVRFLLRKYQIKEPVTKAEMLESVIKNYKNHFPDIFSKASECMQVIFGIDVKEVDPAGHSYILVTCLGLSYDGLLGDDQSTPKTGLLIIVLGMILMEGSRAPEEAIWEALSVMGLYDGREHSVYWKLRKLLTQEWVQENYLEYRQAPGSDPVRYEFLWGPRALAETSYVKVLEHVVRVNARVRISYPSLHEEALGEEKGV
# B6: Probable RNA-binding protein EIF1AD (Homo sapiens), Q8N9N8 (parent)
# chain: MSQATKRKHVVKEVLGEHIVPSDQQQIVRVLRTPGNNLHEVETAQGQRFLVSMPSKYRKNIWIKRGDFLIVDPIEEGEKVKAEISFVLCKDHVRSLQKEGFWPEAFSEVAEKHNNRNRQTQPELPAEPQLSGEESSSEDDSDLFVNTNRRQYHESEEESEEEEAA
# partner: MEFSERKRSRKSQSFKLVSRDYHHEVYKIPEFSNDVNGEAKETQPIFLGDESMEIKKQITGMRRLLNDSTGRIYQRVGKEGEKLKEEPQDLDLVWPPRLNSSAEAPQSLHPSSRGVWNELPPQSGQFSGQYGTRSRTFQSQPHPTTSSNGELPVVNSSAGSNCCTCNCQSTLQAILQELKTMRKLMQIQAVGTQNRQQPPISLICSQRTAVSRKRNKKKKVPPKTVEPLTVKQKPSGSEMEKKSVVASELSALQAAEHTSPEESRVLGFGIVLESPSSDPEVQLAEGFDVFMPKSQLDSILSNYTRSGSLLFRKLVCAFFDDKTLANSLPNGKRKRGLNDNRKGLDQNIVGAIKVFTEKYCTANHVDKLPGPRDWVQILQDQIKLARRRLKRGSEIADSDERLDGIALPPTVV
# B7: Leucine-rich repeat and calponin homology domain-containing protein 1 (Homo sapiens), Q9Y2L9 (parent)
# chain: MATPGSEPQPFVPALSVATLHPLHHPHHHHHHHQHHGGTGAPGGAGGGGGGSGGFNLPLNRGLERALEEAANSGGLNLSARKLKEFPRTAAPGHDLSDTVQADLSKNRLVEVPMELCHFVSLEILNLYHNCIRVIPEAIVNLQMLTYLNLSRNQLSALPACLCGLPLKVLIASNNKLGSLPEEIGQLKQLMELDVSCNEITALPQQIGQLKSLRELNVRRNYLKVLPQELVDLSLVKFDFSCNKVLVIPICFREMKQLQVLLLENNPLQSPPAQICTKGKVHIFKYLSIQACQIKTADSLYLHTMERPHLHQHVEDGKKDSDSGVGSDNGDKRLSATEPSDEDTVSLNVPMSNIMEEEQIIKEDSCHRLSPVKGEFHQEFQPEPSLLGDSTNSGEERDQFTDRADGLHSEFMNYKARAEDCEELLRIEEDVHWQTEGIISSSKDQDMDIAMIEQLREAVDLLQDPNGLSTDITERSVLNLYPMGSAEALELQDSALNGQIQLETSPVCEVQSDLTLQSNGSQYSPNEIRENSPAVSPTTNSTAPFGLKPRSVFLRPQRNLESIDPQFTIRRKMEQMREEKELVEQLRESIEMRLKVSLHEDLGAALMDGVVLCHLVNHIRPRSVASIHVPSPAVPKLSMAKCRRNVENFLEACRKLGVPEADLCSPCDILQLDFRHIRKTVDTLLALGEKAPPPTSALRSRDLIGFCLVHILFIVLVYITYHWNALSA
# B8: KAT8 regulatory NSL complex subunit 1 (Homo sapiens), Q7Z3B3 (parent)
# chain: MAAMAPALTDAAAEAHHIRFKLAPPSSTLSPGSAENNGNANILIAANGTKRKAIAAEDPSLDFRNNPTKEDLGKLQPLVASYLCSDVTSVPSKESLKLQGVFSKQTVLKSHPLLSQSYELRAELLGRQPVLEFSLENLRTMNTSGQTALPQAPVNGLAKKLTKSSTHSDHDNSTSLNGGKRALTSSALHGGEMGGSESGDLKGGMTNCTLPHRSLDVEHTTLYSNNSTANKSSVNSMEQPALQGSSRLSPGTDSSSNLGGVKLEGKKSPLSSILFSALDSDTRITALLRRQADIESRARRLQKRLQVVQAKQVERHIQHQLGGFLEKTLSKLPNLESLRPRSQLMLTRKAEAALRKAASETTTSEGLSNFLKSNSISEELERFTASGIANLRCSEQAFDSDVTDSSSGGESDIEEEELTRADPEQRHVPLRRRSEWKWAADRAAIVSRWNWLQAHVSDLEYRIRQQTDIYKQIRANKGLIVLGEVPPPEHTTDLFLPLSSEVKTDHGTDKLIESVSQPLENHGAPIIGHISESLSTKSCGALRPVNGVINTLQPVLADHIPGDSSDAEEQLHKKQRLNLVSSSSDGTCVAARTRPVLSCKKRRLVRPNSIVPLSKKVHRNSTIRPGCDVNPSCALCGSGSINTMPPEIHYEAPLLERLSQLDSCVHPVLAFPDDVPTSLHFQSMLKSQWQNKPFDKIKPPKKLSLKHRAPMPGSLPDSARKDRHKLVSSFLTTAKLSHHQTRPDRTHRQHLDDVGAVPMVERVTAPKAERLLNPPPPVHDPNHSKMRLRDHSSERSEVLKHHTDMSSSSYLAATHHPPHSPLVRQLSTSSDSPAPASSSSQVTASTSQQPVRRRRGESSFDINNIVIPMSVAATTRVEKLQYKEILTPSWREVDLQSLKGSPDEENEEIEDLSDAAFAALHAKCEEMERARWLWTTSVPPQRRGSRSYRSSDGRTTPQLGSANPSTPQPASPDVSSSHSLSEYSHGQSPRSPISPELHSAPLTPVARDTPRHLASEDTRCSTPELGLDEQSVQPWERRTFPLAHSPQAECEDQLDAQERAARCTRRTSGSKTGRETEAAPTSPPIVPLKSRHLVAAATAQRPTHR
# Variants of: B1
# Details: with zn439_human ZNF439, Q8NDP4
# Chain of zn439_human ZNF439, Q8NDP4 (Q8NDP4 whole entry): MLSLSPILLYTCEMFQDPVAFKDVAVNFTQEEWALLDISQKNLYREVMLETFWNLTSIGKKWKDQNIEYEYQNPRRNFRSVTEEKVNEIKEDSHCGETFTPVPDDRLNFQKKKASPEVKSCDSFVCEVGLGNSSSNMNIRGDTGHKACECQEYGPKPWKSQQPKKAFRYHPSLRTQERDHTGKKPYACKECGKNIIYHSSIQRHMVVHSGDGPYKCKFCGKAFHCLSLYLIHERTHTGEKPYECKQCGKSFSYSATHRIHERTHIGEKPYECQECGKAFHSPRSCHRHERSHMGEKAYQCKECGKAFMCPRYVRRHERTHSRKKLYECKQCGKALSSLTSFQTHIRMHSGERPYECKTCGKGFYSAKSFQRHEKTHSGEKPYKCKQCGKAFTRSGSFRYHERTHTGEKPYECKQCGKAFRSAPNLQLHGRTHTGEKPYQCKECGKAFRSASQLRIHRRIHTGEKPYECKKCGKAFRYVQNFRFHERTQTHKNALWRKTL
row,effect of a mutation on the interaction,Variant
1,with no effect,E167D
2,with no effect,N15H

# Variants of: B2
# Details: with krt38_human KRT38, O76015
row,effect of a mutation on the interaction,Variant
1,with no effect,A517G

# Variants of: B3
# Details: with dvl2_human DVL2, O14641
row,effect of a mutation on the interaction,Variant
1,with no effect,N347Y
2,with no effect,R69C

# Variants of: B4
# Details: with nab2_human NAB2, Q15742
row,effect of a mutation on the interaction,Variant
1,with no effect,S14L

# Variants of: B5
# Details: with maga8_human MAGEA8, P43361
row,effect of a mutation on the interaction,Variant
1,with no effect,E74D

# Variants of: B6
# Details: with bend7_human BEND7, Q8N7W2
row,effect of a mutation on the interaction,Variant
1,with no effect,R48C

# Variants of: B7
# Details: with dock8_human DOCK8, Q8NF50
# Chain of dock8_human DOCK8, Q8NF50 (Q8NF50 whole entry): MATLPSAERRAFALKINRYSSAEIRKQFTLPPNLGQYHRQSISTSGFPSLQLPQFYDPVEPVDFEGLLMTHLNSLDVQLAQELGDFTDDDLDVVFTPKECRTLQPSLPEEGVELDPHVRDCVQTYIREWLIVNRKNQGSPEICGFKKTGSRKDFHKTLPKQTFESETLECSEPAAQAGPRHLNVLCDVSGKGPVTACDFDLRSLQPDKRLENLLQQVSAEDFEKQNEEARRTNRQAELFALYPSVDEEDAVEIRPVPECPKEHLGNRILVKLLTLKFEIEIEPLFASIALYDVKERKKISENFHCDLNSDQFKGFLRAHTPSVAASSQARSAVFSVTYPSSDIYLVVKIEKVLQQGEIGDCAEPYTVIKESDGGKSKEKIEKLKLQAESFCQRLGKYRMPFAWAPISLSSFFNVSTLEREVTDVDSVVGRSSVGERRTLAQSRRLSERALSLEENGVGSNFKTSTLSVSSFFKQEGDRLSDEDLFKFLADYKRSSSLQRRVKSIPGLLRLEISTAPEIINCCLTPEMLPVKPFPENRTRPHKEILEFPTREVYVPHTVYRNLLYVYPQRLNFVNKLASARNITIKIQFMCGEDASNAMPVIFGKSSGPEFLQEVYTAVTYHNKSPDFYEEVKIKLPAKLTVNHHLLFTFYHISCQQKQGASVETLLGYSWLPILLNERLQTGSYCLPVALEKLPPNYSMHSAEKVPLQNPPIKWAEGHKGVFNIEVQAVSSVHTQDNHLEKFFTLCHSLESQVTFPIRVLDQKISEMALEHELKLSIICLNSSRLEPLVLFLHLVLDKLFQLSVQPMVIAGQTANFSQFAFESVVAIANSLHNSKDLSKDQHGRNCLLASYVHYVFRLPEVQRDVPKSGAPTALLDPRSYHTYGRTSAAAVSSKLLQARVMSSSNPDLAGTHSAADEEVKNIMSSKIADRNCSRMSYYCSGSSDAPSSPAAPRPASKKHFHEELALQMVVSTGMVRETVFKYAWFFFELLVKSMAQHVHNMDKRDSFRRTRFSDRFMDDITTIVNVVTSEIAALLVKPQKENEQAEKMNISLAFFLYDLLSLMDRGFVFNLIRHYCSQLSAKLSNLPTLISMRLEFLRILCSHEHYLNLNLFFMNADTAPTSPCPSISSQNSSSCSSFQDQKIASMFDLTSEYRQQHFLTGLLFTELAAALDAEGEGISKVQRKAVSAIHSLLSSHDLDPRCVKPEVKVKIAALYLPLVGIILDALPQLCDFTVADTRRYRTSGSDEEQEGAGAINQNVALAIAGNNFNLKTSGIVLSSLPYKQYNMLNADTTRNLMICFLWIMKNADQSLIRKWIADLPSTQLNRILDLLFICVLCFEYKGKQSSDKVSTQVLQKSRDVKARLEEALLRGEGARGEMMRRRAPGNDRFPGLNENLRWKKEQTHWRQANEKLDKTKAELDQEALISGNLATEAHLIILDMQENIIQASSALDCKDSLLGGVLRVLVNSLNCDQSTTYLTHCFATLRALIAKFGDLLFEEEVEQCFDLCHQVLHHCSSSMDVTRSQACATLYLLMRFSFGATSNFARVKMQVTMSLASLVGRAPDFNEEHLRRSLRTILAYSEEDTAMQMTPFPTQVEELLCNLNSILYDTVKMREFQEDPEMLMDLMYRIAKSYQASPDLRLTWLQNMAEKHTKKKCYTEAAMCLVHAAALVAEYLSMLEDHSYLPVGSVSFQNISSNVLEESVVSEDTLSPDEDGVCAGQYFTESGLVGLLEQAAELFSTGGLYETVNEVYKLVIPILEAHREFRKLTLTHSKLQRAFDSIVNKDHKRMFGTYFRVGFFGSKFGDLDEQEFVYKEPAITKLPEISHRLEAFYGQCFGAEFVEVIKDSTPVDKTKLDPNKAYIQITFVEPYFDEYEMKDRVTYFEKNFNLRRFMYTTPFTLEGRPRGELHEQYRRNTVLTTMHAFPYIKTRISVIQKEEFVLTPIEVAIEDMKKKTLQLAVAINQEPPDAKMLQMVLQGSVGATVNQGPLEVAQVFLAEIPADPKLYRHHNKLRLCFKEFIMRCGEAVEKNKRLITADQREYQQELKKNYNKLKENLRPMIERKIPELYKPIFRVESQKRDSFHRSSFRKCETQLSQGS
row,effect of a mutation on the interaction,Variant
1,with no effect,A486S

# Variants of: B8
# Details: with cdr2_human CDR2, Q01850
# Chain of cdr2_human CDR2, Q01850 (Q01850 whole entry): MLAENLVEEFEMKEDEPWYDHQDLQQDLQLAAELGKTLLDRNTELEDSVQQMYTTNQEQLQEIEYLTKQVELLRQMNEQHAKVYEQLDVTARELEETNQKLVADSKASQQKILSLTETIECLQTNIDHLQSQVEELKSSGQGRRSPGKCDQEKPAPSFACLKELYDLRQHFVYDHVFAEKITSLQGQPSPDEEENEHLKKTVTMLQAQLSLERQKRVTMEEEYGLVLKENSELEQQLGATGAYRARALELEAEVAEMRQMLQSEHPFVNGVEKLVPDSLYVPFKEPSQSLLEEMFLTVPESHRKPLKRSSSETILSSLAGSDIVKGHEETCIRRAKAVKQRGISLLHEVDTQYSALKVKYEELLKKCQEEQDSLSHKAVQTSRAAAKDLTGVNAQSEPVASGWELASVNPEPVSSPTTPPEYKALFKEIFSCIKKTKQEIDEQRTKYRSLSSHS
row,effect of a mutation on the interaction,Variant
1,with no effect,K104T

# Variants of: B8
# Details: with traf2_human TRAF2, Q12933
# Chain of traf2_human TRAF2, Q12933 (Q12933 whole entry): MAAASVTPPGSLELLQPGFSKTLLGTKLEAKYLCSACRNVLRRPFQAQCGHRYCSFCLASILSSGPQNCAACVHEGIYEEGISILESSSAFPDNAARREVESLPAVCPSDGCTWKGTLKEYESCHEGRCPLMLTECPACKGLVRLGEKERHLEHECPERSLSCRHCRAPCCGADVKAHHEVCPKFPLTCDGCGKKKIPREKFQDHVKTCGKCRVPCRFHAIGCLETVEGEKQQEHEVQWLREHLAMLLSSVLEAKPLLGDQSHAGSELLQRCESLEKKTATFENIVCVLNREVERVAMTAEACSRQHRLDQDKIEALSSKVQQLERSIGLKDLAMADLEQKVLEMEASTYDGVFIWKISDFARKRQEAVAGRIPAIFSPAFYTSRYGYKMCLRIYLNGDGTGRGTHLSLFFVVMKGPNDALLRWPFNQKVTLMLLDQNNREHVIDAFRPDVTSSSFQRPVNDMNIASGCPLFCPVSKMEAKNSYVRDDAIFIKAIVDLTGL
row,effect of a mutation on the interaction,Variant
1,with no effect,K104T

# Variants of: B8
# Details: with KRT15, P19012
# Chain of KRT15, P19012 (P19012 whole entry): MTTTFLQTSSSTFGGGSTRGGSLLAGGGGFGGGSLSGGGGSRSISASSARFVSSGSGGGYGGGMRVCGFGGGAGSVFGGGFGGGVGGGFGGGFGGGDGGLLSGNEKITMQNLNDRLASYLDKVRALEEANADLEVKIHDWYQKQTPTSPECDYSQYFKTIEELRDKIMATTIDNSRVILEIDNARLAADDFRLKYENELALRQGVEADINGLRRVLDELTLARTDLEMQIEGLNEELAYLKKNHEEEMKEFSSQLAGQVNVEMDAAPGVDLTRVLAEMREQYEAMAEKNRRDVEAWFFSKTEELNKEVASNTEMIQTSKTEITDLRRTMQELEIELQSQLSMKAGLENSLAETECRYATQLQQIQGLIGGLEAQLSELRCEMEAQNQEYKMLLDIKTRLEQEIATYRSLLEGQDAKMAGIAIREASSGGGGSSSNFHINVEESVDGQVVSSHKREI
row,effect of a mutation on the interaction,Variant
1,with no effect,K104T
